{"source": "patent US5780265", "key": {"Human Factor XIa (human) [1]": {"target": "Human Factor XIa (human) (UniProt P03951)"}, "Human Factor XIa (human) [2]": {"target": "Human Factor XIa (human) (UniProt P03951)", "test": "enzyme inhibition of FXIa, chromogenic substrate, fit to the tight-binding equation (apparent Ki*)"}, "[3]": {"target": "tissue factor-Factor VIIa (human) (UniProt P13726)"}, "[4]": {"target": "Human plasma kallikrein (human) (UniProt P03952)"}, "Human Factor XIa (human) [5]": {"target": "Human Factor XIa (human) (UniProt P03951)", "remark": "listed apart in the source"}}, "data": [{"substance": "APPI, Kunitz protease inhibitor domain of the Alzheimer's amyloid β-protein precursor", "values": [{"measurement": "fold prolongation of the clotting time of normal human plasma, APTT assay", "setting": "Human Factor XIa (human) [1]", "result": 2.8, "unit": "fold"}, {"measurement": "Ki", "setting": "Human Factor XIa (human) [2]", "result": 2.7, "unit": "nM"}, {"measurement": "fraction of remaining proteolytic activity at 100 nM inhibitor (fraction of uninhibited rate)", "setting": "[3]", "result": 0.6}, {"measurement": "fraction of remaining proteolytic activity at 100 nM inhibitor (fraction of uninhibited rate)", "setting": "[4]", "result": 0.81}, {"measurement": "fraction of remaining proteolytic activity at 100 nM inhibitor (fraction of uninhibited rate)", "setting": "Human Factor XIa (human) [5]", "result": 0.03}]}]}
